The results in this text go back to the supplement of paper PMC9112550, “Optimization of the antimicrobial peptide Bac7 by deep mutational scanning” (BMC Biology, 2022).

This data set relates to Escherichia coli TOP10. As to the kind of experiment: shrunken log2 fold change of peptide-encoding DNA abundance (4.5 h post-induction vs induction); higher = less antimicrobial activity (less host growth inhibition). The settings on record: time post-induction: 4.5 h; library: site-saturation at positions 5, 18, 19, 20.
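Also: peptides expressed intracellularly from a pBAD plasmid library in pooled LB shake-flask culture, induced with 0.3% L-arabinose, DNA abundance read by NGS, three biological replicates, DESeq2 with apeglm shrinkage.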

In the case of RRIRVRPPRLPRPRPRPEYNPRP, the “shrunken log2 fold change” value was -0.185.
The result for RRIRIRPPRLPRPRPRPMRYPRP reads -0.176; that for RRIRIRPPRLPRPRPRPMHEPRP, -0.0221.
RRIRTRPPRLPRPRPRPDLPPRP: the “shrunken log2 fold change” value is 0.0603.
In the case of RRIRHRPPRLPRPRPRPYTPPRP, the “shrunken log2 fold change” value was -1.32.
With RRIRERPPRLPRPRPRPPKPPRP, the “shrunken log2 fold change” value was found to be 0.122.
RRIRLRPPRLPRPRPRPQCYPRP: the “shrunken log2 fold change” value is -0.172.
With RRIRIRPPRLPRPRPRPCALPRP, the “shrunken log2 fold change” value is 0.00316.
For the sequence RRIRWRPPRLPRPRPRPICIPRP, the “shrunken log2 fold change” value was -0.191.
Turning to RRIRYRPPRLPRPRPRPQWAPRP, the “shrunken log2 fold change” value was -0.00681.
Consider RRIRYRPPRLPRPRPRPDAHPRP, for which the “shrunken log2 fold change” value was -0.0156.
As for RRIRQRPPRLPRPRPRPGEGPRP, the “shrunken log2 fold change” value was found to be 0.00168.
On to RRIRGRPPRLPRPRPRPYRPPRP, for which the “shrunken log2 fold change” value is -0.186.
Take RRIRARPPRLPRPRPRPTHSPRP: the “shrunken log2 fold change” value was found to be 0.459.
As for RRIRARPPRLPRPRPRPNSTPRP, the “shrunken log2 fold change” value worked out at 0.0264.
Under RRIRDRPPRLPRPRPRPGESPRP stands -0.00997; under RRIRKRPPRLPRPRPRPAGQPRP, 0.0284; under RRIRCRPPRLPRPRPRPEIVPRP, -0.221.
For RRIRMRPPRLPRPRPRPMGRPRP, the “shrunken log2 fold change” value was -0.0209.
Turning to RRIRFRPPRLPRPRPRPGAWPRP, the “shrunken log2 fold change” value was -0.15.
With RRIRARPPRLPRPRPRPQHMPRP, the “shrunken log2 fold change” value was -0.414.
Regarding RRIRLRPPRLPRPRPRPYWKPRP, the “shrunken log2 fold change” value is -0.0713.
In the case of RRIRKRPPRLPRPRPRPRHEPRP, the “shrunken log2 fold change” value was -0.115.
Regarding RRIRERPPRLPRPRPRPALVPRP, the “shrunken log2 fold change” value came to 0.193.
The result for RRIRIRPPRLPRPRPRPQYDPRP reads -0.043; that for RRIRRRPPRLPRPRPRPHSRPRP, 0.163; that for RRIRRRPPRLPRPRPRPTDGPRP, 0.0329.
RRIRRRPPRLPRPRPRPVWMPRP: the “shrunken log2 fold change” value is 0.561.
Take RRIRGRPPRLPRPRPRPKVEPRP: the “shrunken log2 fold change” value was 0.615.
Consider RRIRARPPRLPRPRPRPFQWPRP, for which the “shrunken log2 fold change” value is -0.0629.
Take RRIRFRPPRLPRPRPRPTQAPRP: the “shrunken log2 fold change” value was 0.442.
As for RRIRYRPPRLPRPRPRPCVEPRP, the “shrunken log2 fold change” value is -0.0115.
Turning to RRIRSRPPRLPRPRPRPAEIPRP, the “shrunken log2 fold change” value was -0.136.
In the case of RRIRVRPPRLPRPRPRPMFLPRP, the “shrunken log2 fold change” value was -0.557.
Under RRIRYRPPRLPRPRPRPKIGPRP stands -0.177.
With RRIRARPPRLPRPRPRPLLRPRP, the “shrunken log2 fold change” value is 0.103.
On to RRIRGRPPRLPRPRPRPRCNPRP, for which the “shrunken log2 fold change” value was 0.551.
Turning to RRIRMRPPRLPRPRPRPTWDPRP, the “shrunken log2 fold change” value was 0.762.
The result for RRIRIRPPRLPRPRPRPFGYPRP reads -0.478.
For RRIRRRPPRLPRPRPRPFDIPRP, the “shrunken log2 fold change” value is -0.0362.
Regarding RRIRTRPPRLPRPRPRPVIVPRP, the “shrunken log2 fold change” value was -0.314.
As for RRIRDRPPRLPRPRPRPDYMPRP, the “shrunken log2 fold change” value is 0.0916.
For the sequence RRIRQRPPRLPRPRPRPDCIPRP, the “shrunken log2 fold change” value is -0.0167.
In the case of RRIRFRPPRLPRPRPRPWWWPRP, the “shrunken log2 fold change” value was found to be 0.0474.
RRIRARPPRLPRPRPRPCWQPRP: the “shrunken log2 fold change” value came to 0.096.
Take RRIRNRPPRLPRPRPRPNCDPRP: the “shrunken log2 fold change” value is -0.237.
Take RRIRQRPPRLPRPRPRPWNEPRP: the “shrunken log2 fold change” value was -0.139.
The result for RRIRFRPPRLPRPRPRPGATPRP reads 0.357; that for RRIRPRPPRLPRPRPRPQVCPRP, 0.129; that for RRIRLRPPRLPRPRPRPNTAPRP, -0.248.
Regarding RRIRERPPRLPRPRPRPWGLPRP, the “shrunken log2 fold change” value is -0.026.
For the sequence RRIRARPPRLPRPRPRPNAIPRP, the “shrunken log2 fold change” value is 0.201.
Take RRIRHRPPRLPRPRPRPMFLPRP: the “shrunken log2 fold change” value is -0.797.
Consider RRIRTRPPRLPRPRPRPRYRPRP, for which the “shrunken log2 fold change” value is -0.0728.
Under RRIRERPPRLPRPRPRPMGYPRP stands -0.0965.
With RRIRMRPPRLPRPRPRPATSPRP, the “shrunken log2 fold change” value worked out at 0.654.
RRIRIRPPRLPRPRPRPCWWPRP: the “shrunken log2 fold change” value came to 0.082.
Regarding RRIRMRPPRLPRPRPRPNTQPRP, the “shrunken log2 fold change” value is 0.0014.
Turning to RRIRLRPPRLPRPRPRPSVWPRP, the “shrunken log2 fold change” value came to 0.158.
RRIRVRPPRLPRPRPRPMVLPRP: the “shrunken log2 fold change” value is -0.19.
Under RRIRMRPPRLPRPRPRPHHFPRP stands -0.00112; under RRIRSRPPRLPRPRPRPGHHPRP, -0.0988.
In the case of RRIRTRPPRLPRPRPRPHTKPRP, the “shrunken log2 fold change” value is -0.0963.
Under RRIRIRPPRLPRPRPRPGAIPRP stands -0.0678.
For RRIRMRPPRLPRPRPRPYYFPRP, the “shrunken log2 fold change” value is -0.537.
For the sequence RRIRRRPPRLPRPRPRPQFSPRP, the “shrunken log2 fold change” value is -0.326.
Under RRIRNRPPRLPRPRPRPHPAPRP stands 0.116; under RRIRKRPPRLPRPRPRPKACPRP, -0.00804.
For RRIRPRPPRLPRPRPRPDDIPRP, the “shrunken log2 fold change” value was -0.0962.
With RRIRNRPPRLPRPRPRPFPAPRP, the “shrunken log2 fold change” value was -0.0844.
Turning to RRIRTRPPRLPRPRPRPRWPPRP, the “shrunken log2 fold change” value was found to be 0.424.
With RRIRFRPPRLPRPRPRPRHKPRP, the “shrunken log2 fold change” value worked out at 0.202.
RRIRWRPPRLPRPRPRPVFTPRP: the “shrunken log2 fold change” value came out at 0.0746.
For RRIRNRPPRLPRPRPRPCCLPRP, the “shrunken log2 fold change” value was -0.219.
As to RRIRERPPRLPRPRPRPKMYPRP, the “shrunken log2 fold change” value was -0.898.
In the case of RRIRYRPPRLPRPRPRPFWHPRP, the “shrunken log2 fold change” value was -0.556.
Take RRIRSRPPRLPRPRPRPMTIPRP: the “shrunken log2 fold change” value was -0.0727.
Take RRIRKRPPRLPRPRPRPMMLPRP: the “shrunken log2 fold change” value was -0.0136.
With RRIRFRPPRLPRPRPRPISVPRP, the “shrunken log2 fold change” value turned out to be 0.0197.
Regarding RRIRRRPPRLPRPRPRPHAHPRP, the “shrunken log2 fold change” value was -0.00194.
Take RRIRYRPPRLPRPRPRPCQPPRP: the “shrunken log2 fold change” value is -0.354.
With RRIRPRPPRLPRPRPRPITDPRP, the “shrunken log2 fold change” value is -0.16.
Turning to RRIRTRPPRLPRPRPRPLFGPRP, the “shrunken log2 fold change” value is -0.186.
Regarding RRIRLRPPRLPRPRPRPCKMPRP, the “shrunken log2 fold change” value is -0.503.
For RRIRLRPPRLPRPRPRPPINPRP, the “shrunken log2 fold change” value was -0.00991.
Regarding RRIRARPPRLPRPRPRPDTGPRP, the “shrunken log2 fold change” value was -0.0932.
As to RRIRQRPPRLPRPRPRPVPQPRP, the “shrunken log2 fold change” value is 0.0925.
Turning to RRIRVRPPRLPRPRPRPLFVPRP, the “shrunken log2 fold change” value is -0.175.
As to RRIRCRPPRLPRPRPRPNRSPRP, the “shrunken log2 fold change” value is -0.359.
For the sequence RRIRDRPPRLPRPRPRPYIEPRP, the “shrunken log2 fold change” value is -0.0649.
Consider RRIRWRPPRLPRPRPRPPMEPRP, for which the “shrunken log2 fold change” value is -0.131.
